# B1: P43: accessory factor of tRNA synthetase of mammals; single-chain protein of 312 amino acids; obtained from Sine Laboratory, Shanghai (protein, UniProt Q12904 2-312, looked up)
# Aminoacyl tRNA synthase …: ANNDAVLKRLEQKGAEADQIIEYLKQQVSLLKEKAILQATLREEKKLRVENAKLKKEIEELKQELIQAEIQNGVKQIPFPSGTPLHANSMVSENVIQSTAVTTVSSGTKEQIKGGTGDEKKAKEKIEKKGEKKEKKQQSIAGSADSKPIDVSRLDLRIGCIITARKHPDADSLYVEEVDVGEIAPRTVVSGLVNHVPLEQMQNRMVILLCNLKPAKMRGVLSQAMVMCASSPEKIEILAPPNGSVPGDRITFDAFPGEPDKELNPKKKIWEQIQPDLHTNDECVATYKGVPFEVKGKGVCRAQTMSNSGIK
# Experiments:
# Type in all cases: in vivo, BALB/cA bare mouse
# Parameters in all cases: TV d 0 / TV d 21: unit not given here
# Settings in all cases: for RTV: RTV=Vt/V0; for T/C (%): TRTV/CRTV×100; for Weight (g) Final: final body weight; for Weight (g) First: first (baseline) body weight; for TV d 0: d 0, day of first administration
# [1] = test system: human gastric adenocarcinoma SGC-7901; assay: Transplanted tumor of human gastric adenocarcinoma SGC-7901 in bare mouse
# Description: (§1) Animal Resource, Line and Strain: BALB/cA bare mouse, provided by Experimental Animal Center, Chinese Academy of Sciences, Shanghai, China.
# Bare mouse transplanted with human gastric adenocarcinoma […] was established by subcutaneously inoculating human gastric adenocarcinoma SGC-7901 cell strain into bare mouse, with a inoculation concentration of 1-3×10^6. After establishing the transplanted tumor, it was passaged in bare mouse for three generations prior to use.
# (§2) The eugonic tumor tissue was cut into about 1.5 mm^3. It was inoculated into hypodermis in right armpit of bare mouse under aseptic condition. The diameter of the transplanted tumor of the bare mouse was measured by vernier caliper. After the tumor grew to 100-300 mm^3, the mice were grouped randomly. The effect of reagents used for inhibiting tumor was observed dynamically through measuring the diameter of tumor. The diameter of tumor was measured 3 times per week, while measuring the weight of mice. With respect to the mice in an administration group, the mice were administrated by intravenous injection 6 times per week: with respect to the mice in a positive control group, the mice were administrated by intravenous injection 2 times per week; with respect to the mice in a negative control group, the mice were administrated by same amount of physiological saline at the same time.
# (§3) The tumor volume (TV) was calculated as follows:
# (§4) in which a and b represent length and width, respectively. The relative tumor volume (RTV) was calculated based on the measured results: RTV=Vt/V0, in which V0 represents the tumor volume measured at the first administration (d0), and Vt represents the tumor volume measured at each measurement. The factor for estimating the effect against tumor is the relative tumor proliferation T/C (%) as follows:
# (§5) TRTV: RTV for treating group; CRTV: RTV for negative control group.
# 100 mg of p43 protein, obtained from Sine Laboratory in Shanghai, China, was dissolved in physiological saline to form a solution of 1 mg/ml.
# (§6) The solution was administrated to bare mouse by intravenous injection in 2.5 mg p43 protein/kg weight, 5 mg p43 protein/kg weight, and 10 mg p43 protein/kg weight.
# [2] = test system: human colon carcinoma HCT-116; assay: Transplanted tumor of human colon carcinoma HCT-116 in bare mouse
# Description: as §1
# (§7) Number of animal in each group: 10 mice for negative control group and 5 mice for treating group
# (§8) Transplanted tumor of human colon carcinoma HCT-116 in bare mouse was established by inoculating human colon carcinoma HCT-116 cell strain into hypoderm of bare mouse, with a inoculation concentration of 1-3×10^6. After establishing the transplanted tumor, it was passaged in bare mouse for three generations prior to use.
# as §2, with “through the method of” for “through”, “week,” for “week:”
# as §3
# as §4, with “depending” for “based”, “growth” for “proliferation”
# as §5
# 100 mg of p43 protein, available from Sine Laboratory in Shanghai, China, was dissolved in physiological saline to form a solution of 1 mg/ml.
# as §6
# [3] = test system: human nasopharyngeal carcinoma CNE-1; assay: Transplanted tumor of human nasopharyngeal carcinoma CNE-1 in bare mouse
# Description: as §1, §7
# as §8, with “nasopharyngeal” for “colon”, “CNE-1” for “HCT-116”
# as §2, with “fro” for “for”, “through the method of” for “through”, “week;” for “week:”
# as §3
# as §4, with “depending” for “based”, “growth” for “proliferation”
# as §5
# 100 mg of p43 protein, available from Sine Laboratory in Shanghai, China, was dissolved in physiological saline to form a solution of 1 mg/ml. […]
# [4] = 2.5 mg/kg intravenous injection 6 times per week
# [5] = 2.5 mg/kg intravenous injection
# [6] = 5 mg/kg intravenous injection 6 times per week
# [7] = 10 mg/kg intravenous injection 6 times per week
molecule,measurement,setting,value
B1,RTV,[1]; [4],17.14 ± 7.25
same,T/C (%),[1]; [4],81.7%
same,TV d 21,[1]; [4],2400 ± 360
same,Weight (g) Final,[1]; [4],26.7 ± 1.7 g
same,Weight (g) First,[1]; [4],20.3 ± 0.9 g
same,TV d 0,[1]; [5],140 ± 73
same,RTV,[1]; [6],11.37 ± 6.3
same,T/C (%),[1]; [6],54.2%
same,TV d 21,[1]; [6],1648 ± 102
same,Weight (g) Final,[1]; [6],25.1 ± 1.9 g
same,Weight (g) First,[1]; [6],20.5 ± 0.7 g
same,TV d 0,[1]; 5 mg/kg intravenous injection,146 ± 72
same,RTV,[1]; [7],12.99 ± 5.14
same,T/C (%),[1]; [7],61.9%
same,TV d 21,[1]; [7],1715 ± 168
same,Weight (g) Final,[1]; [7],25.4 ± 2.8 g
same,Weight (g) First,[1]; [7],20.7 ± 0.6 g
same,TV d 0,[1]; 10 mg/kg intravenous injection,132 ± 34
same,side effect,"[1]; SGC-7901 bearing bare mouse, 2.5, 5 and 10 mg/kg intravenous injection",without any obvious side effect
same,inhibition on growth of transplanted tumor,"[1]; SGC-7901 in bare mouse, 2.5, 5 and 10 mg/kg intravenous injection",significant inhibition
same,RTV,[2]; [4],5.01 ± 0.92
same,T/C (%),[2]; [4],84.5%
same,TV d 21,[2]; [4],822 ± 145
same,Weight (g) Final,[2]; [4],24.1 ± 1.5 g
same,Weight (g) First,[2]; [4],20.7 g
same,TV d 0,[2]; [5],164 ± 48
same,RTV,[2]; [6],4.51 ± 0.75
same,T/C (%),[2]; [6],76.0%
same,TV d 21,[2]; [6],703 ± 189
same,Weight (g) Final,[2]; [6],23.9 ± 2.2 g
same,Weight (g) First,[2]; [6],21.3 g
same,TV d 0,[2]; 5 mg/kg intravenous injection,156 ± 39
same,RTV,[2]; [7],4.73 ± 1.01
same,T/C (%),[2]; [7],79.7%
same,T/C (%),"[2]; 10 mg/kg intravenous injection 6 times per week, listed as p43",79.79%
same,TV d 21,[2]; [7],761 ± 211
same,Weight (g) Final,[2]; [7],23.5 ± 2.1 g
same,Weight (g) First,[2]; [7],20.9 g
same,TV d 0,[2]; 10 mg/kg intravenous injection,161 ± 52
same,side effect,"[2]; HCT-116 bearing bare mouse, 2.5, 5 and 10 mg/kg intravenous injection",without any obvious side effect
same,inhibition on growth of transplanted tumor,"[2]; HCT-116 in bare mouse, 2.5, 5 and 10 mg/kg intravenous injection",non-significant inhibition
same,RTV,[3]; [4],13.43 ± 5.64
same,T/C (%),[3]; [4],88.9%
same,TV d 21,[3]; [4],1921 ± 201
same,Weight (g) Final,[3]; [4],24.6 ± 2.4 g
same,Weight (g) First,[3]; [4],20.5 ± 1.3 g
same,TV d 0,[3]; [5],143 ± 70
same,RTV,[3]; [6],12.75 ± 5.12
same,T/C (%),[3]; [6],84.4%
same,TV d 21,[3]; [6],1708 ± 154
same,Weight (g) Final,[3]; [6],23.1 ± 1.8 g
same,Weight (g) First,[3]; [6],19.6 ± 0.8 g
same,TV d 0,[3]; 5 mg/kg intravenous injection,134 ± 48
same,RTV,[3]; [7],12.63 ± 4.88
same,T/C (%),[3]; [7],83.6%
same,TV d 21,[3]; [7],1856 ± 173
same,Weight (g) Final,[3]; [7],22.9 ± 2.3 g
same,Weight (g) First,[3]; [7],19.8 ± 1.1 g
same,TV d 0,[3]; 10 mg/kg intravenous injection,147 ± 63
same,side effect,"[3]; CNE-1 bearing bare mouse, 2.5, 5 and 10 mg/kg intravenous injection",without any obvious side effect
same,inhibition on growth of transplanted tumor,"[3]; CNE-1 in bare mouse, 2.5, 5 and 10 mg/kg intravenous injection",non-significant inhibition

# — patent US20090324573A1, “Pharmaceutical Composition Comprising P43 Protein for the Treatment of Gastric Adenocarcinoma” (priority 2006, published 2009)
